Measured values reported in US20100196361A1, “Method of inhibition of vascular development using an antibody” (DYAX CORP., priority 2003, published 2010).

T1: mouse Tie1 Fc (Mus musculus, UniProt Q06806)
T1 construct: both dimeric (Tie1-Fc fusion protein) and monomeric (Tie1-HIS) versions of the extracellular domain of the Tie1 were used
T1 sequence (Q06806 23-755 limits assumed): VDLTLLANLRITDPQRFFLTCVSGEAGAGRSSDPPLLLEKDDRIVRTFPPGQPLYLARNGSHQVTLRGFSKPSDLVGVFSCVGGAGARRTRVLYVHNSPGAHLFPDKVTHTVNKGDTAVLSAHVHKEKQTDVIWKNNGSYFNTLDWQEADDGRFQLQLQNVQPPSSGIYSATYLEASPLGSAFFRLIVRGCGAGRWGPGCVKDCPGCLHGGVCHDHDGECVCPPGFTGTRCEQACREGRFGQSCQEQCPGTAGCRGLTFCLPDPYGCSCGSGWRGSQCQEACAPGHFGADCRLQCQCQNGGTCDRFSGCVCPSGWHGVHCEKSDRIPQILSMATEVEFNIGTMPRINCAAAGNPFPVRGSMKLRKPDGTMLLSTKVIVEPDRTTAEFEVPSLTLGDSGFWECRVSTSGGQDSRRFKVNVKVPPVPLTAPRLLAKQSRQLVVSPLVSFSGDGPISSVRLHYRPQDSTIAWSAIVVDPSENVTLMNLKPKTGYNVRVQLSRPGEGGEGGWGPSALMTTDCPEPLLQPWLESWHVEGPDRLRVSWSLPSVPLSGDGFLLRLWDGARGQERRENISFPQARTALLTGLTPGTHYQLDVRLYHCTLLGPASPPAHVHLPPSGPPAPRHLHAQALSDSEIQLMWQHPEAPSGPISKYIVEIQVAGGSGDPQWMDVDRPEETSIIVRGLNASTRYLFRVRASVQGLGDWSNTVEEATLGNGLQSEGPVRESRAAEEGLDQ


Columns and labels:
mouse Tie1 Fc [1] = target: T1, mouse Tie1 Fc; test: BIAcore, mouse Tie1 Fc over IgG coated on CM5 chip; type: binding; conditions: IgG immobilised; Mouse Tie1 Fc analyte
Description: In order to evaluate if the binding behavior had been affected in any way by the conversion of the somatic mutations back to germline, the germlined antibody was produced and tested as an IgG. The germlined E3 was reformatted to an IgG as described. This was then used to transiently transfect HEK293T cells using established procedures. The IgG was purified from the culture supernatant using protein A column chromatography using established procedures and the subsequent IgG was then tested for binding activity using surface plasmon resonance (BIAcore). The germlined E3 IgG1 stock solution 0.63 mg/ml (2146-002) was diluted 1/50 in a buffer of pH 4.5 and the parental E3 IgG1 stock solution 0.56 mg/ml (2143-001) was diluted 1/50 in a buffer of pH 4.5. The IgG were directly coated via onto a CM5 chip. The surface of the chips was activated with a 7 minute pulse of 0.05M NHS/0.2M EDC and the IgG was flowed over until 780RU germlined E3-IgG and 728 non germlined E3 IgG was coated onto the surface. All flow cells were subsequently deactivated with a 7 minute pulse of 1M ethanolamine hydrochloride pH8,5. All analysis was performed in HBS buffer. Purified recombinant mouse Tie1 Fc was diluted 1/6,5 in HBS to obtain a 400 nM stock solution. Serial dilutions were made to obtain 200 nM, 100 nM, 50 nM and 25 nM Tie1 Fc stocks. For analysis of the association phase samples were injected at 30 μl/min for 8.3 minutes using kinject program. This was followed by a 40 minutes dissociation phase. Any antigen remaining associated to the surface was stripped from the IgG surface at a flow of 50 μl/min with two injections of 10 mM glycine pH1.5 for 30 seconds. All samples were run and analyzed in duplicate
(§1) Sensorgrams were analyzed using the simultaneous ka/kd fitting program with 1:1 model in the BIAEVALUATION™ software 3.1.

mouse Tie1 Fc [2] = target: T1, mouse Tie1 Fc; test: BIAcore, Fab over biotinylated mouse Tie1-Fc on streptavidin chip; type: binding; conditions: Fab analyte; for kon: 740 RU
Description: Mouse Tie 1-Fc antigen (0.5 mg/ml stock) was biotinylated using established procedures and after dilution 1/100 fold in HBS this was then used for capturing to a streptavidin chip. This was coated to a resonance value of 740RU. All analysis was performed in HBS buffer. The parental Fab E3 0.587 mg/ml (11740 nM) was diluted 1/587 in HBS+BSA to obtain a stock of 20 nM and the germlined Fab E3 0.025 mg/ml (500 nM) was diluted 1/25 in HBS+BSA to obtain a stock of 20 nM. Serial dilutions were made of each Fab preparation to obtain 10 nM, 5 nM, 2.5 nM, and 1.25 nM. For the association phase samples were injected at 30 μl/min for 4 minutes using kinject program. This was followed by a 10 minutes dissociation phase, any remaining sample was stripped from the Tie1 Fc surface at a flow of 50 μl/min with a single injection of 50 mM NaOH+1 M NaCl for 18 seconds. All samples were run and analyzed in duplicate.
as §1

| Molecule | koff (mouse Tie1 Fc [1]) [s⁻¹] | kon (mouse Tie1 Fc [1]) [M⁻¹ s⁻¹] | koff (mouse Tie1 Fc [2]) [s⁻¹] | kon (mouse Tie1 Fc [2]) [M⁻¹ s⁻¹] |
| --- | --- | --- | --- | --- |
| E3: human anti-Tie1 antibody from phage Fab library, reformatted as IgG; HC variable SEQ ID NO:114, LC variable SEQ ID NO:116 (antibody, V domains shown, IgG constant regions; Synthetically generated peptide) VH: EVQLLESGGGLVQPGGSLRLSCAASGFTFSMYGMVWVRQAPGKGLEWVSVISPSGGNTGYADSVKGRFTISRDNSKNTLYLQVNSLRAEDTAVYYCARAPRGYSYGYYYWGQGTLVTVSSASTKGPSVFPLAPSSKSTSGG VL: DIQMTQSPLSLSASVGDRVTITCRASQGIGHYLAWYQQKPGKVPKLLIYTASTLQSGVPSRFSGSGSGTDFTLTINSLQPEDVATYYCQQFNSYPHTFGQGTRLDIK | 9.2e-05 | 6170 | – | – |
| DX-2210: E3 antibody in which the light chain has been germlined (antibody, V domains shown) VH: EVQLLESGGGLVQPGGSLRLSCAASGFTFSMYGMVWVRQAPGKGLEWVSVISPSGGNTGYADSVKGRFTISRDNSKNTLYLQVNSLRAEDTAVYYCARAPRGYSYGYYYWGQGTLVTVSSASTKGPSVFPLAPSSKSTSGG VL: DIQMTQSPSSLSASVGDRVTITCRASQGIGHYLAWYQQKPGKVPKLLIYTASTLQSGVPSRFSGSGSGTDFTLTISSLQPEDVATYYCQQFNSYPHTFGQGTRLEIK | 8.99e-05 | 6000 | – | – |
| parental E3 Fab: soluble Fab fragment of the parental E3 anti-Tie1 antibody (antibody, V domains shown) VH: EVQLLESGGGLVQPGGSLRLSCAASGFTFSMYGMVWVRQAPGKGLEWVSVISPSGGNTGYADSVKGRFTISRDNSKNTLYLQVNSLRAEDTAVYYCARAPRGYSYGYYYWGQGTLVTVSSASTKGPSVFPLAPSSKSTSGG VL: DIQMTQSPLSLSASVGDRVTITCRASQGIGHYLAWYQQKPGKVPKLLIYTASTLQSGVPSRFSGSGSGTDFTLTINSLQPEDVATYYCQQFNSYPHTFGQGTRLDIK | – | – | 0.00095 | 246000 |
| germlined E3 Fab: soluble Fab of E3 with LC framework regions germlined to DPK4; LC variable SEQ ID NO:159 (antibody, V domains shown) VH: EVQLLESGGGLVQPGGSLRLSCAASGFTFSMYGMVWVRQAPGKGLEWVSVISPSGGNTGYADSVKGRFTISRDNSKNTLYLQVNSLRAEDTAVYYCARAPRGYSYGYYYWGQGTLVTVSSASTKGPSVFPLAPSSKSTSGG VL: DIQMTQSPSSLSASVGDRVTITCRASQGIGHYLAWYQQKPGKVPKLLIYTASTLQSGVPSRFSGSGSGTDFTLTISSLQPEDVATYYCQQFNSYPHTFGQGTRLEIK | – | – | 0.00104 | 340000 |
